Experimental data reported in patent EP1246846B1 (ZymoGenetics, Inc., dated 2008).

Target: T1, IL-20RA/IL-20RB heterodimeric receptor (human, UniProt Q9UHF4 30-553; Q6UXL0 30-311)
T1 construct: Both subunits were co-expressed on transfected COS, BHK or BaF3 cells, or were endogenous on HaCaT keratinocytes; also called IL-20RB-IL-20RA heterodimer; IL-20 receptor
T1 sequence 1: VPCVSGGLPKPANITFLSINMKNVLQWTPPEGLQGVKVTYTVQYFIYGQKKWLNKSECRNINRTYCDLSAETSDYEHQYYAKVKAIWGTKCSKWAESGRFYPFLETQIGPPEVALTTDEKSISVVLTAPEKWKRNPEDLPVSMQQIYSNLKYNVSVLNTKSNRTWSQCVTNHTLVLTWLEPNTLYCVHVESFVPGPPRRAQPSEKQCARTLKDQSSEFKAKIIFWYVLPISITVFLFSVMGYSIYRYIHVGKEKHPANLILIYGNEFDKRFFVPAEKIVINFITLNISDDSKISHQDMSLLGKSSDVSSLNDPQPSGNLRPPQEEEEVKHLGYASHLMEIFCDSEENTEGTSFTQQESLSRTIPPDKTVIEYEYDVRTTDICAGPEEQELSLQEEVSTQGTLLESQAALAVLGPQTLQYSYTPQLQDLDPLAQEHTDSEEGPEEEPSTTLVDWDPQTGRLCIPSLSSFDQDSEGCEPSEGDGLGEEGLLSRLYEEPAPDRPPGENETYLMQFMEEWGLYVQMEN
T1 sequence 2: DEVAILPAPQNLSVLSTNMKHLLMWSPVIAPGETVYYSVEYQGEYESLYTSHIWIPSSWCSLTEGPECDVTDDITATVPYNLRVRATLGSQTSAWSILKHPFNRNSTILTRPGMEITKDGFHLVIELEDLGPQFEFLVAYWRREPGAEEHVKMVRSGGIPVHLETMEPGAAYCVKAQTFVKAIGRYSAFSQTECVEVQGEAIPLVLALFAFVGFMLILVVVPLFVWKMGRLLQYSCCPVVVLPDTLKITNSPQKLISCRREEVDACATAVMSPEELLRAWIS
Test: 125I-labeled IL-20 binding to BHK cells stably transfected with IL-20RA and IL-20RB

Kd: ~1.5 nM
B1: IL-20 (Interleukin-20) (ligand, UniProt Q9NYY1 25-176, looked up)
chain: LKTLNLGSCVIATNLQEIRNGFSEIRGSVQAKDGNIDIRILRRTESLQDTKPANRCCLLRHLLRLYLDRVFKNYQTPDHYTLRKISSLANSFLTIKKDLRLCHAHMTCHCGEEAMKKYSQILSHFEKLEPQAAVVKALGELDILLQWMEETE
modifications: biotin-labeled in Example 3; 125I-labeled in Example 7; unlabeled in the functional assays
notes: also called Zcyto10; biotin-labeled IL-20 protein
